T1: human TNFR2 (Homo sapiens, UniProt P20333 23-461)
T1 construct: also called hTNFR2; TNFRSF1B
T1 sequence: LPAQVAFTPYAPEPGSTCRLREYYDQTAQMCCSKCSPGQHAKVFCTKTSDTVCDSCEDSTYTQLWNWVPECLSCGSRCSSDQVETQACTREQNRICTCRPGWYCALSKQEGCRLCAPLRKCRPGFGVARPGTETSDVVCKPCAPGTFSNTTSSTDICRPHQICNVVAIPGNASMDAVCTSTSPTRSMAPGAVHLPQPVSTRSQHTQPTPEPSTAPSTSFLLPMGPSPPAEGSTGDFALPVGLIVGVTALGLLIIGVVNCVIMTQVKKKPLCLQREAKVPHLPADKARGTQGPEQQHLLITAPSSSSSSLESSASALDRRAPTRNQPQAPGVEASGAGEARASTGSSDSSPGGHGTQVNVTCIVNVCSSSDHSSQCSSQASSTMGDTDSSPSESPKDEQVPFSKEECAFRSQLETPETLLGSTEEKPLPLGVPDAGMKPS

T2: murine TNFR2 (Mus musculus, UniProt P25119 23-474)
T2 construct: Stably overexpressed on HEK293T cells; also called mouse TNFR2
T2 sequence: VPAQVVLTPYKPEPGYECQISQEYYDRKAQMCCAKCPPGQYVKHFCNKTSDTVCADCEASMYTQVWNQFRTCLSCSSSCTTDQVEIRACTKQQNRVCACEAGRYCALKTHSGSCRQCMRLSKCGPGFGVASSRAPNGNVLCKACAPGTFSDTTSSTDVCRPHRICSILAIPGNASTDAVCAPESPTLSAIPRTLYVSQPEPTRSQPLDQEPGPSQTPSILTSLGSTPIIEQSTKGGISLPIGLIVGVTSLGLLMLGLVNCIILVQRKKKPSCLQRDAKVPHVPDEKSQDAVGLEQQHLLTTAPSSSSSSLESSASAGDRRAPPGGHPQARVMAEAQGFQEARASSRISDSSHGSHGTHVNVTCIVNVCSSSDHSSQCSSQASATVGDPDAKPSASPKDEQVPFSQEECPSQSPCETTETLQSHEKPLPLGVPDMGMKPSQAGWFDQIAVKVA

T3: human TNFR1 (Homo sapiens, UniProt P19438 30-455)
T3 construct: Stably overexpressed on CHO-K1 cells; also called TNFRSF1A; p55
T3 sequence: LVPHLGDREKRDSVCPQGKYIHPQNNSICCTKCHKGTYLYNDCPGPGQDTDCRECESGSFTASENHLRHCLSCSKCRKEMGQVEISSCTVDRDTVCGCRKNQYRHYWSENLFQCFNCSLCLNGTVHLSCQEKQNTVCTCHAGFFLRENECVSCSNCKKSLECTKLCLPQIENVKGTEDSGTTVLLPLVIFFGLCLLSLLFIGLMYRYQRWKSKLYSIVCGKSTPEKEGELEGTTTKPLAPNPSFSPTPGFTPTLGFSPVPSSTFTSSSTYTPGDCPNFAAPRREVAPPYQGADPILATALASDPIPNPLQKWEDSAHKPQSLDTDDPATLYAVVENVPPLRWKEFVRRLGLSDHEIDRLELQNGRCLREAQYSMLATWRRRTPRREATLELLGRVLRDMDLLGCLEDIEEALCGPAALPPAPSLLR

T4: cynomolgus TNFR2 (Macaca fascicularis, UniProt P20333 23-461 (human entry))
T4 construct: Stably overexpressed on HEK293T cells; also called cynoTNFR2
T4 chain: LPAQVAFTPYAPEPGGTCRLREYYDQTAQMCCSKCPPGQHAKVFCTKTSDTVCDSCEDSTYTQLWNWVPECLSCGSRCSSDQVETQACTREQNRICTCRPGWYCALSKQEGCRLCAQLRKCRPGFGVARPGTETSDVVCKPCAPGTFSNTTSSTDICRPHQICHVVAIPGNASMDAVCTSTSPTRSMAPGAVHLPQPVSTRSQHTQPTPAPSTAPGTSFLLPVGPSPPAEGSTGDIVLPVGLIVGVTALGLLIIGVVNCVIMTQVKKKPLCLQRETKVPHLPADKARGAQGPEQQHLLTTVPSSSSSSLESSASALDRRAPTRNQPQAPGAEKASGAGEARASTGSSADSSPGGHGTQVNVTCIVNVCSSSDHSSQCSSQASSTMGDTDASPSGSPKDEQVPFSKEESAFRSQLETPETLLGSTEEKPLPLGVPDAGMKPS


What was measured:
[1] = molecular target: T1, human TNFR2; assay: binding to cells stably overexpressing human TNFR2, serial dilutions, flow cytometry or imaging
Procedure: (§1) HEK293T cells stably overexpressing human TNFR2 or CHO-K1 stably overexpressing human TNFR1 were aliquoted in FACS buffer and incubated with serial dilutions of TNFR2 antibody. […] Following an incubation, the reactions were subsequently analyzed by flow cytometry. […] The concentration-response was fitted to a four-parameter logistic non-linear regression model in the GraphPad Prism software to obtain the EC₅₀ values.

[2] = molecular target: T2, murine TNFR2; assay: flow cytometry on HEK293T cells stably overexpressing murine TNFR2
Procedure: (§2) HEK293T cells stably overexpressing human TNFR2, cynomolgus TNFR2, or murine TNFR2 were aliquoted in FACS buffer and incubated with serial dilutions of TNFR2 antibody for 2 hours.
(§3) The concentration-response was fitted to a four-parameter logistic non-linear regression model in the GraphPad Prism software to obtain the EC₅₀ values.

[3] = molecular target: T1, human TNFR2; assay: flow cytometry on HEK293T cells stably overexpressing human TNFR2, Alexa Fluor 647 secondary antibody
Procedure: as §1

[4] = molecular target: T3, human TNFR1; assay: flow cytometry on CHO-K1 cells stably overexpressing human TNFR1
Procedure: as §1

[5] = molecular target: T4, cynomolgus TNFR2; assay: flow cytometry on HEK293T cells stably overexpressing cynomolgus TNFR2
Procedure: as §2, §3

[6] = molecular target: T1, human TNFR2; assay: image binding assay on adherent HEK293T cells overexpressing human TNFR2 (384-well plate)
Procedure: as §1

Binder | EC50 [1] | EC50 (read off the curve) [3] | binding result [4] | binding result [5] | EC50 (read off the curve) [6] | binding result [2]
R2_mAb-2 (antibody, V domains shown, also called R2-2) VH: QVQLVQSGPEVKKPGASVKVSCKASGYTFTNYGISWVRQAPGQGLEWMGWINAYNGNTNYAQKLQGRVTMTTDTSTSTAYMELRSLRSDDTAVYYCARDGGYGSGTYHNDYYYYYGMDVWGQGTTVTVSS VL: EIVLTQSPDFQSMTPEEKVTITCRASQSIGSNLHWYQQKPDQSPKLLIKFASQSISGVPSRFSGSGSGTDFTLTINSLEAEDAATYYCHQSSSLPFTFGPGTKVDIK | 0.35 nM | ~0.3 nM | no binding (tested: up to 10 µg/mL) | binds |  | no binding (tested: up to 10 (unit cut off in the text))
R2_mAb-3 (antibody, V domains shown, also called R2-3) VH: QVQLQESGPGLVKPSETLSLTCTVSGGSISSYYWSWIRQAPGKGLEWIGYIYYSGSTNYNPSLKSRVTISVDTSKNQFSLKLSSVTAADTAVYYCARDDGSSDYGMDVWGQGTTVTVSS VL: AIQLTQSPSSLSASVGDRVTITCRASQGISSALAWYQQKPGKAPKLLIYDASSLESGVPSRFTGSGTDFTLTISSLQPEDFATYYCQQFNNYMYTFGQGTKLEIK | 0.38 nM | ~0.4 nM | no binding (tested: up to 10 µg/mL) |  |  | no binding (tested: up to 10 (unit cut off in the text))
R2_mAb-6 (antibody, V domains shown, also called R2-6) VH: QVQLVQSGAEVKKPGASVKVSCKASGYTFLSYGLSWVRQAPGQGLEWMGWINAYNGNTNYAQNLQDRVTMTTDTSTSTAYMELRSLRSDDMAVYYCARWDILTAYYSSDAFDIWGQGTMVTVSS VL: DIVMTQTPLSSPVTLGQPASISCRSSQSLVHSDGNTYLNWLQQRPGQPPRLLIYKVSNRFSGVPDRFSGSGAGTDFTLKISRVEAEDVGVYYCTQTTQFPITFGQGTRLEIK | 0.14 nM | ~0.1 nM | no binding (tested: up to 10 µg/mL) | binds |  | no binding (tested: up to 10 (unit cut off in the text))

The next binders have a lower EC50 [1] than those just listed; values first:

EC50 [1] | EC50 (read off the curve) [3] | binding result [4] | binding result [5] | EC50 (read off the curve) [6] | Binder | binding result [2]
0.11 nM | ~0.1 nM | no binding (tested: up to 10 µg/mL) | binds | ~0.2 nM | R2_mAb-4 (antibody, V domains shown, also called R2-4) VH: QVQLVQSGAEVRKPGASVKVSCKASGYTFTSYSVTWVRQAPGQGLEWMGWINAFSGNTHYAQNLQDRVTMTTDTSTSTAYMELRSLRSDDTAVYYCAREEGSGSYEDYYGMDVWGQGTTVTVSS VL: not shown | no binding (tested: up to 10 (unit cut off in the text))
0.1 nM | ~0.1 nM | no binding (tested: up to 10 µg/mL) | binds |  | R2_mAb-1 (antibody, V domains shown, also called R2-1) VH: QVQLVESGGGVVQPGRSLRLSCAASGFTFSSYGMHWVRQAPGKGLEWVAVIWFDEDNKDYADSVKGRFTISRDNSKNTLYLQMSSLRAEDTAVYYCARDNDILTGYYYYYGMDVWGQGTTVTVSS VL: DIQLTQSPSFLSASVGDRVTITCRASQDISSYLAWYQQKPGKAPKLLIYAASTLQSGVPSRFSGSGSGTEFTLTISSLQPEDFATYYCQQLNSYPPTFGQGTKVEIK | no binding (tested: up to 10 (unit cut off in the text))
0.1 nM | ~0.1 nM | no binding (tested: up to 10 µg/mL) | binds | ~0.1 nM | R2_mAb-5 (antibody, V domains shown, also called R2-5) VH: QVQLVQSGAEVKKPGASVTVSCKASGYTFSTYGIIWVRQAPGQGLEWMGWISAFNGNANSAQKLQDRVTMTTDTSTSTAYMELRSLRSDDTAVYYCARGEDFFDYWGQGTLVTVSS VL: DIVMTQTPLSSPVTLGQPASISCRSSQSLVHSDGNTYLSWLQQRPGQPPRLLIYKVSSRFSGVPDRFSGSGAGTDFTLKISRVEAEDVGVYYCTQSTQFPFTFGRGTKLEIK | no binding (tested: up to 10 (unit cut off in the text))
